Measured values from patent US20260374834 (published 2026).

B1: WM2 (designed binder)
chain: YFPKLRSKLSVIRNLNDQVLFIDQGNRPLFEDMTDSDCRDNAPRTIFIISMYKDSQPRGMAVTISVKCEKISTLSCENKIISFKEMNPPDNIKDTESDIIFFQRSVPGHDNKMQFESSSYEGYFLACEKERDLFKLILKKEDELGDRSIMFTVQNED
B2: WM8 (designed binder)
chain: YFPKLRSKLSVIRNLNDQVLFIDQGNRPLFEDMTDSDCRDNAPRTIFIISMYKDSQPRGMAVTISVKCEKISTLSCENKIISFKEMNPPDSIKDTKSDIIFFQRSVPGHDNKMQFESSSYEGYFLACEKERDLFKLILKKEDELGDRSIMFTVQNED
B3: M36 (designed binder)
chain: YFPKLSSKLSVIRNLNDQVLFIDQGNRPLFEDMTDSDCRDNAPRTIFIISMYKASDQRGMAVTISVKCEKISTLSCENKIISFKEMNPPDGIKDTKSDIIFFQRSVPGHDNKMQFESSSYEGYFLACEKERDLFKLILKKEDELGDRSIMFTVQNED
B4: M6 (designed binder)
chain: YFPKLRSKLSVIRNLNDQVLFIDQGNRPLFEDMTDSDCRDNAPRTIFIISMYKWSTPRGMAVTISVKCEKISTLSCENKIISFKEMNPPDVIKDTKSDIIFFQTSVPGHDNKMQFESSSYEGYFLACEKERDLFKLILKKEDELGDRSIMFTVQNED

Target: T1, hIL-18Ra ECD-Fc (human, UniProt Q13478)
T1 chain: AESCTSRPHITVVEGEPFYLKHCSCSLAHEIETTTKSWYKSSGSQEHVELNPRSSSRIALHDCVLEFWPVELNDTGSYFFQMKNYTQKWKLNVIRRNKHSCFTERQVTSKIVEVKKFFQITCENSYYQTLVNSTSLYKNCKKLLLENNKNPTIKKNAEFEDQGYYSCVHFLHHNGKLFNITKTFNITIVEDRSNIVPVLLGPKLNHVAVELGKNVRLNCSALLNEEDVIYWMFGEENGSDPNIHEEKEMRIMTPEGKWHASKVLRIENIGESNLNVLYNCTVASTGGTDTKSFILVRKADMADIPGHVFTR
Assay: BLI

Kd, > 1000 nM:
B1, B2, B3, B4
